Target: human CD147 on human cell lines (KYSE-70, H292, LS174T and other human-derived cell lines) (human) (UniProt P35613)
Assay: FACS on the human KYSE-70 esophageal epithelial cell line, Alexa Fluor 647 anti-human IgG

B1: humanized anti-human CD147 hu3A11 antibody (3A11 Lc1 / Hc1) (antibody, V domains shown)
VH: EVQLVESGGGLVQPGGSLRLSCAASGFTFSNYWMDWVRQAPGKGLEWVGEIRLKSYNYATHYAASVKGRFTISRDDSKNSVYLQMNSLKTEDTAVYYCTAAGTDYWGQGTLVTVSS
VL: DIQMTQSPSSLSASVGDRVTITCRASQSVRTDVGWYQQKPGKAPKLLIYYSSNRYTGVPSRFSGSGSGTDFTLTISSLQPEDFATYYCQQDYSSPYTFGQGTKLEIK
Binder B1 has a Kd of 1.65 nM.

Source: WO2019173771A1
